In the DeepSol protein solubility set:

Assay: soluble on expression in E. coli; label from the status in PepcDB or PDB records

| Sequence | soluble on expression in E. coli |
| --- | --- |
| MPTWEELYKNAIEKAIKSVPKVKGVLLGYNTNIDAIKYLDSKDLEERIIKAGKEEVIKYSEELPDKINTVSQLLGSILWSIRRGKAAELFVESCPVRFYMKRWGWNELRMGGQAGIMANLLGGVYGVPVIVHVPQLSRLQANLFLDGPIYVPTLENGEVKLIHPKEFSGDEENCIHYIYEFPRGFRVFEFEAPRENRFIGSADDYNTTLFIREEFRESFSEVIKNVQLAILSGLQALTKENYKEPFEIVKSNLEVLNEREIPVHLEFAFTPDEKVREEILNVLGMFYSVGLNEVELASIMEILGEKKLAKELLAHDPVDPIAVTEAMLKLAKKTGVKRIHFHTYGYYLALTEYKGEHVRDALLFAALAAAAKAMKGNITSLEEIREATSVPVNEKATQVEEKLRAEYGIKEGIGEVEGYQIAFIPTKIVAKPKSTVGIGDTISSSAFIGEFSFTL | soluble |
| MILMRTIDWNEESNSVVLVDQTLLPQEYKVIECKTLSSLCEAIQSLRIRGAPALGAAGGFGIALAAYLSGAKDIESMTKDLKVAAKALKSTRPTAVNLAWGVDRVLNAISDAFDFRGIRDIALQEARDIAEEDIETNKLIGKYGAKLLKDGDTVLTHCNAGRLACVDWGTALGVVRSAIADGKEIKVLACETRPLNQGSRITTWELMQDKIPVTLIADSMAGWAMRQGLVNSVLVGADRITQDVVFNKIGTYTHSILAREHEIPFYVAAPVSTFDFEGWEGSIKIEMRNPDELRFAGCQQLAPEDVPVYNPAFDATPMENVTALITERGVFYPPILLDEVLVLEHHHHHH | not soluble |
| PDLAQKAANLTQEELAGLLYDSLYTKILPLSDDIIVYPAHGAGSACGKNMMQETVDSLGNQKRVNYALNQPGKEAFIASVIEGLLPPPAYFGGNVAMNKMGYDSIDNVMERGLSALSATDFEAIAKTSDALVLDTRAPGVFAQGFIPRSINIGLDGDFAPWVGTMIVDVKQPLLLVADPGREQEVITRLSRVGFDQVLGYLDGGFDTWNASGKEIDHVECITANEFAERFCPEESLVFDVRKESEYAAEHVEGAYSRPLAYINDWIQDIPRDRHFYLHCIGGYRSMIASSILLSRGYRNFTDIEGGFASIAQTGVPKTDYVCQSKVSKK | not soluble |
| MSAPTTFSVALHNETATAQLMADLALLVGPGDVITLTGDLGAGKTAAARAMIRYLADDEALEVPSPTFTLVQGYELPPFPVMHADLYRVEDESELEEIGLSPLPDATLVLIEWPERAPSALPEDRIDIALTHRPALGSNARAADITGYGKSAAQVARLKALREFLDASGYLDAMRRRMAGDASTRSYARLLRDDEIVILMNFPQRPDGAALYNGKSYSAAVHLAENVKPFVAIDEGLRAQGISAPAIHHADLDHGFLISEDFGSEGVIEGNPPRPIPERYEAATDVLAVLHGKTLPETLPLDGQSYAIPVFDTEAMLIEIGLMPEWYLPDRNAPLSEPKRAEFFAMWRELLKKPLAAPRTWIIRDYHSPNLIWLGMRTGIERVGVIDFQDTVLGPQSYDVVSLLQDARIDVPENLELTLLSRYIKARRAGDASFDPAGFAELYAIMSAQRNTRLLGTFARLNRRDGKPHYLRHQPRIWTYLQRSLAHPALSHLRDWYLANVPPPQRPSQEPAPEPPQGLEHHHHHH | soluble |
| MGIFSRFADIVNSNISALLDKAEDPEKMIRLIIQEMEDTLVEVRTNSAKAMADKKELARKVESIEQQLEDWQNKATLALTKQREDLARAALIEKQKLQHVLKGLHTEQMLVEETIEKLTGEIGKLETKITETRAKQQALAIRSQAASHRRDVQRHLHAGRTEEAMAKFEQFSRKVDELEAEADLYAQSGQARSLEQEFAELQAQDEIEKELNKLKAQMKSDQLEHHHHHH | soluble |
| SLTEKDVLSQEEIDALLDSVDESIDGETNDEELNSSDQPARKKPEDTTGQELNSTFDSDIKVAEEGVKTLNFTGQERIVKGQLPVLDKIYDRAVRLFAADIYHLTARDFEIKQDPLLITKHKEFMRSLPNPSLIGIYKFKPLRGKGIILFDSTFVYDLVDYYFGGNSQFGAQKDKTDFTATELRVMEVVTKKLVTNLTHAWEPIIQLDVTKFNDETNPQLVNIAEPEEMLLVARFLLNFGKETGAFYFILPYSMLEPIKQQLELGASRPDDEIDPNWINSLKEELMDVELTVSASMAETVSTLGQVMAWKVGDFVPLEINEEVTLDIEGTPSFTATLGSANEKRALKIIKIIRY | soluble |
| MASGKVRCTRKLRSWIVEQVESGHFPGVCWDDAAKTMFRIPWKHAGKQDFREDQDAAIFKAWALFKEKHKDGDIGHPAVWKTRLRCALNKSSEFEEVPERGRMDVAEPYKVYRILPAGTLPNQPRNQKSPCKRSISCVSPEREENMENGRTNGVVNHSDSGSNIGGGGNGSNRSDSNSNCNSELEEGAGTTEATIREDPVFLEHQLPLNSDYSLLLTFIYGGRVVGKTQVHSLDCRLVAERSDSESSMEQVEFPKPDPLEPTQHLLNQLDRGVLVASNSRGLFVQRLCPIPISWNAPEAPPGPGPHLLPSNKCVELFKTTYFCRDLAQYFQGQGPPPKFQATLHFWEESPGSSHSQENLITVQMEQAFARHLLEKIPEEEKAALFLLQHTEQSPSALGH | soluble |
| MSTLQAAAHGRIVQLSRIRKEIADLAKNKRRFIKDFRKIEKCKDIFQFKIIGDGVLYKNMIFTLTLDVNVEYPFKPPYLKFCHNVYHPNVDPVTCELCSPMLLQENWKPETTMEDVLLNLIVLLNEPDLSRPVNIDAAHDYIHNKVEFVKKSTELAKKWN | not soluble |
| MGSDKIHHHHHHMAEKVDYAALKKGGFMRQKQKGCFSLRIAVVGGNLTAENIKTVAEVAEKYGHGYVHMTSRQGIEIPFIKVEDINVVKEELAKGGVGTGVCGPRVRTVTACQGSEICPSGCIDTYTLAKELDERYFGRELPHKFKFGVTGCQNNCLKAEENDVGIKGGMTVECSHDDCIQCGVCVKACREGALSMEDGRIVIDRDKCNNCARCVKSCPTDAWKGTPGYIVSFGGLFGNHIYKGEQLVPIIRDKETLFRVTDAAISFFEKHANGGERFRLTLQRVGEEEFKKEIQAAYEGK | not soluble |
| MNKRRVKPEHVRREEIVNAAYEVIFEVGLSNTTMAQIAKKAQLSVGIVSHYFGDKQGLINACMLEMLNVLRRKTAQYKAEVQDSHPESMIKAIIDSNFDISQVNQRAMRIWLDFWSASMHMPELSRLQRINDQRLYSNLKFHFLELMPKDQASIAARGLAALIDGLWLRGSLSQDTTFDSTLARSIAYDYVDTQLKLVKQIRQERQNE | not soluble |
| MGSDKIHHHHHHMQKRHKDRQCYFNELANTSRSFYIDYVKQFISLSPSTHILEIGCGEGGNLLPFAELGCKVTGIDRAASRIHQAETFFTASGYKGEFTTTDFFNFSSASRYQLILIHDVIEHISNKEEFFRCLSPLLAKRGIIFWGFPSWQMPFGGHQQICHNRFVSSLPFIHLCPGILYRFLLRCFHETPSCIEELSDIKRCRMTIDTFEQLAEKYGYEITDRQLWFINPHYQQKFHLRPRKLYPVLAQLKYIRNYFSTSCFYITRHRELHD | not soluble |
| MKNKDSLHVSRRRFLAQLGGLTVAGMLGPSLLTPRSARAADAVAPGAATKEGILTGSHWGAIRATVVDGRFVAAKPFEQDKYPSKMIAGLPDHVHNAARIRYPMVRVDWMRKGHQSDTSQRGDNRFVRVSWDEALDLFYQELERVQKTYGPSALLTASGWQSTGMFHNASGMLARAIALHGNSVSTGGDYSTGAAQVILPRVVGSMEVYEQQTSWPLVLQNSKTIVLWGSDMVKNQQANWWCPDHDVYQYYEQLKEKVASGAISVISIDPVVTSTHDYLGRDKVKHIAINPQTDVPLQLALAHTLYSEKLYDKNFLDNYCVGFDQFLPYLLGEKDGQPKDAAWAEKLCGIDADTIRALARQMAGDRTQIIAGWCVQRMQHGEQWSWMVVVLAAMLGQIGLPGGGFGFGWHYNGAGTPGRKGIILSGFSGSTTVPPVHDSTDYKGYSSTIPIARFMDAILEPGKIINWNGKSVKLPPLKMCVFAGTNPFHRHQQINRIIEGWRKLETVIAIDNQWTSTCRFADIVLPATTQFERNDLDQFGNHSNRGIIAMKQVVSPQFEARNDFDIFRDLCRRFNREAAFTEGLDEMGWLKRIWQEGSQQGKGRGIHLPIFEVFWNQQEYIEFDHPQMFVRHQAFREDPDLEPLGTPSGLIEIYSKTIADMQYDDCQGHPMWFEKIERSHGGPGSQRWPLHLQSVHPDFRLHSQLCESETLRQQYAVGGKEPVFINPQDASARGIRNGDIVRVFNARGQVLAGAVVSDRYAPGVARIHEGAWYDPDKGGDLNALCKYGNPNVLTLDIGTSQLAQATSAHTTLVEIEKYTGPMDNVTAFNGPVEMVAQCEYVPASQGNPHD | not soluble |
| RDSSDDWEIPDGQITVGQRIGSGSFGTVYKGKWHGDVAVKMLNVTAPTPQQLQAFKNEVGVLRKTRHVNILLFMGYSTKPQLAIVTQWCEGSSLYHHLHASETKFEMKKLIDIARQTARGMDYLHAKSIIHRDLKSNNIFLHEDNTVKIGDFGLATVKSRWSGSHQFEQLSGSILWMAPEVIRMQDSNPYSFQSDVYAFGIVLYELMTGQLPYSNINNRDQIIEMVGRGSLSPDLSKVRSNCPKRMKRLMAECLKKKRDERPSFPRILAEIEELARELSG | soluble |
| KVWKPGDECFALYWEDNKFYRAEVEALHSSGMTAVVKFTDYGNYEEVLLSNIKPVQTEAWVRDPN | soluble |
| MQQLQNVIETAFERRADITPANVDTVTREAITHVIDLLDTGALRVAEKIDGQWVTHQWLKKAVLLSFRINDNQVMEGAETRYYDKVPMKFAGYDEARFQREGFRVVPPATVRKGAFIARNTVLMPSYVNIGAFVDEGTMVDTWATVGSCAQIGKNVHLSGGVGIGGVLEPLQANPTIIEDNCFVGARSEVVEGVIVEEGSVISMGVFIGQSTRIYDRETGEVHYGRVPAGSVVVSGNLPSKDGSYSLYCAVIVKKVDAKTRSKVGINELLRTID | not soluble |
| MSREILTVVETVSNEKGVSREAIFEALEQALVAATKKKFYEGTNAEEAQLRVEIDRKTGDYRTFRQWTLVADEDHEMPACQDAISDVDASKWSIGDVRELEVESIEFGRIAAQIAKQVIVQKIREAERALIADAYESKVGELIYGEVKKQTKDGFIIDLGDNAEAYLAREEMIAKEILRPKQRMNAILYSVNREGRGAQLLLSRARPEMLMALMKKEIPEISEEIIEIKAAARQPGVRAKIAVKTNDHRIDPVGACIGMRGTRIQAVQQELNGERIDVVVWSDDPAQYIASALEPADVSGIVLDEDTRSADIIFATNDQLARAIGSQGQNVRLASELTGYKLDMMLEEEYRARQQNEAQQYLDMFVTRLDIEEDLAMALVEMGFTSLEEIAYVPPETFDEIELDQELVELLQSRAKEAALTDALKQQENVQEPSVELLAMAGMTQELAYALAARGVVTVDDLADQATDDISDIEGLSEEKAGQLIMKARESWFNLEHHHHHH | soluble |
| MWLKVGGLLRGTGGQLGQTVGWPCGALGPGPHRWGPCGGSWAQKFYQDGPGRGLGEEDIRRAREARPRKTPRPQLSDRSRERKVPASRISRLANFGGLAVGLGLGVLAEMAKKSMPGGRLQSEGGSGLDSSPFLSEANAERIVQTLCTVRGAALKVGQMLSIQDNSFISPQLQHIFERVRQSADFMPRWQMLRVLEEELGRDWQAKVASLEEVPFAAASIGQVHQGLLRDGTEVAVKIQYPGIAQSIQSDVQNLLAVLKMSAALPAGLFAEQSLQALQQELAWECDYRREAACAQNFRQLLANDPFFRVPAVVKELCTTRVLGMELAGGVPLDQCQGLSQDLRNQICFQLLTLCLRELFEFRFMQTDPNWANFLYDASSHQVTLLDFGASREFGTEFTDHYIEVVKAAADGDRDCVLQKSRDLKFLTGFETKAFSDAHVEAVMILGEPFATQGPYDFGSGETARRIQDLIPVLLRHRLCPPPEETYALHRKLAGAFLACAHLRAHIACRDLFQDTYHRYWASRQPDAATAGSLPTKGDSWVDPS | not soluble |
| RLLGAPVPVDENDEGLQRALQFAMAEYNRASNDKYSSRVVRVISAKRQLVSGIKYILQVEIGRTTCPKSSGDLQSCEFHDEPEMAKYTTCTFVVYSIPWLNQIKLLESKCQ | soluble |
